# Measurements as given in article PMC5464773.
# Molecular target: Myc-tagged Bfl-1 (human) (UniProt Q16548)
# Test: fluorescence polarisation; competition: 0–10 μM unlabeled peptide titrated into 50 nM c-myc-tagged receptor plus 25 nM fluoresceinated BIM; 25 mM Tris pH 7.8, 50 mM NaCl, 1 mM EDTA, 5% DMSO, 0.001% v/v Triton-X; 23°C, 3 hr; fit to a complete competitive binding model
# Chain of Myc-tagged Bfl-1 (human) (Q16548 whole entry): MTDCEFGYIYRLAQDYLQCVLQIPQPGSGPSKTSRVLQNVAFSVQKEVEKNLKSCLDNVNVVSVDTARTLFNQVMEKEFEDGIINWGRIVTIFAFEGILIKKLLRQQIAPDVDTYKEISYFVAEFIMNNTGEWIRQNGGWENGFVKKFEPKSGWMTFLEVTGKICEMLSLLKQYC
substance,measurement,value
BIM BH3 peptide (unlabeled) (peptide; other documents disagree on this pair),Ki,< 0.1 nM
